Results published in US5817785, “Methods of producing nucleic acid ligands” (NeXstar Pharmaceuticals, Inc.).

What was measured:
[1] = molecular target: T1, HIV-1 reverse transcriptase (HIV-RT) (HIV-1, UniProt P04585;P04585 P04585:588-1147,P04585:588-1027); assay: filter
Description: (§1) Affinity assays with labeled RNA and HIV-RT. Model RNAs for refinement of the 5' and 3' boundaries and for determination of the effect of substitutions were labeled during transcription with T7 RNA polymerase as described in Tuerk et al. (1990) except that a-^32P-ATP was used, in reactions of 0.5 mM C,G, and UTP with 0.05 mM ATP. Synthetic oligonucleotides and phosphatased transcripts (as in Tuerk et al., 1990) were kinased as described in Gauss et al. (1987). All RNA-protein binding reactions were done in a "binding buffer" of 200 mM KOAc, 50 mM Tris-HCl pH 7.7, 10 mM dithiothreitol with exceptions noted for chemical protection experiments below. RNA and protein dilutions were mixed and stored on ice for 30 minutes then transferred to 37° C. for 5 minutes. In binding assays the reaction volume was 60 μl of which 50 μl was assayed. Each reaction was suctioned through a pre-wet (with binding buffer) nitrocellulose filter and rinsed with 3 mls of binding buffer after which it was dried and counted for assays or subjected to elution and assayed for chemical modification. In comparisons of binding affinity, results were plotted and the protein concentration at which half-maximal binding occurred (the approximate Kd in conditions of protein excess) was determined graphically.

[2] = molecular target: T1, HIV-1 reverse transcriptase (HIV-RT); assay: filter; no difference in affinity
Description: as §1

[3] = molecular target: T1, HIV-1 reverse transcriptase (HIV-RT); assay: filter; affinity unchanged versus transcripts with two extra 5' Gs
Description: as §1

[4] = molecular target: T1, HIV-1 reverse transcriptase (HIV-RT); assay: filter; no effect on binding
Description: as §1

[5] = molecular target: T1, HIV-1 reverse transcriptase (HIV-RT); assay: filter; specific binding abolished
Description: as §1

[6] = molecular target: T1, HIV-1 reverse transcriptase (HIV-RT); assay: filter; no 3' helix
Description: as §1

[7] = molecular target: T1, HIV-1 reverse transcriptase (HIV-RT); assay: filter; section II states 5-fold decrease on removal of both Us
Description: as §1

[8] = molecular target: T1, HIV-1 reverse transcriptase (HIV-RT); assay: filter; binding reduced to that of non-specific sequences
Description: as §1

[9] = molecular target: T1, HIV-1 reverse transcriptase (HIV-RT); assay: filter; little difference in affinity
Description: as §1

[10] = molecular target: T1, HIV-1 reverse transcriptase (HIV-RT); assay: filter; binds with high affinity
Description: as §1

B1: ligand B C3-G14 to G-C (ssRNA)
RNA: GGUCGGAAGUGCAACCGGAAAAUGCACU
For B1, the binding signal [1] was ~10 fold lower affinity.

B2: ligand B 3' truncation A24-U26 (ssRNA)
RNA: GGUCCGAAGUGCAACGGGAAAAUGC
Work on B2 yielded a binding signal [2] of 1 fold vs ligand B.

B3: ligand B 3' truncation C23-U26 (ssRNA)
RNA: GGUCCGAAGUGCAACGGGAAAAUG
For B3, the binding signal [1] was 7 fold lower affinity.

B4: ligand B G4-C13 to A-U (ssRNA)
RNA: GGUCCAAAGUGCAAUGGGAAAAUGCACU
Binder B4 has a binding signal [1] of ~20 fold lower affinity.

B5: synthetic ligand B with 5'-terminal U1 (ssRNA)
RNA: UCCGAAGUGCAACGGGAAAAUGCACU
B5: binds [3].

B6: ligand B C2-G15 to G-C (ssRNA)
RNA: GGUGCGAAGUGCAACGCGAAAAUGCACU
B6: no binding [1].

B7: ligand B G4-C13 to C-G (ssRNA)
RNA: GGUCCCAAGUGCAAGGGGAAAAUGCACU
In the case of B7, the binding signal [4] is reported as 1 fold vs ligand B.

B8: ligand B G16A (ssRNA)
RNA: GGUCCGAAGUGCAACGGAAAAAUGCACU
B8: no binding [5].

B9: ligand B 3' truncation U21-U26 (no Stem 2) (ssRNA)
RNA: GGUCCGAAGUGCAACGGGAAAA
Binder B9 has a binding signal [6] of ~70 fold lower affinity.

B10: ligand B U1C (ssRNA)
RNA: GGCCCGAAGUGCAACGGGAAAAUGCACU
B10 showed a binding signal [1] of ~20 fold lower affinity.

B11: HIV-RT ligand C of FIG. 2 (no 5' U) (ssRNA)
RNA: GGCCGAAGUGCAACGGGAAAAUGCACU
modifications: [none]
With B11 the binding signal [7] was ~20 fold lower affinity.

B12: HIV-RT ligand D of FIG. 2 (5' U and next C removed) (ssRNA)
RNA: GGCGAAGUGCAACGGGAAAAUGCACU
B12: no binding [8].

B13: ligand B U1A (ssRNA)
RNA: GGACCGAAGUGCAACGGGAAAAUGCACU
B13: binds [9].

B14: ligand B with 2'-methoxy Stem 2 (FIG. 7 C) (ssRNA)
RNA: UCCGAAGUGCAACGGGAAAAUGCACU
modifications: 2'-OMe at the 12 riboses of Stem 2 (A6-A11, U21-U26)
B14: binds [10].

B15: ligand B 3' truncation G22-U26 (ssRNA)
RNA: GGUCCGAAGUGCAACGGGAAAAU
For B15, the binding signal [1] was ~12 fold lower affinity.

B16: ligand B G4-C13 to A-C (ssRNA)
RNA: GGUCCAAAGUGCAACGGGAAAAUGCACU
With B16 the binding signal [5] was ≥ 100 fold lower affinity.
